Results on 4 molecules are retold here after publication PMC4027161 (Nucleic Acids Research, 2014).

First the molecules themselves.
T1: monomeric form of PCNA2 (PCNA2m, R75A-F111E-R143A) (Thermococcus kodakarensis, UniProt Q5JFD3 1-253, R75A | F111E | R143A)
T1 sequence: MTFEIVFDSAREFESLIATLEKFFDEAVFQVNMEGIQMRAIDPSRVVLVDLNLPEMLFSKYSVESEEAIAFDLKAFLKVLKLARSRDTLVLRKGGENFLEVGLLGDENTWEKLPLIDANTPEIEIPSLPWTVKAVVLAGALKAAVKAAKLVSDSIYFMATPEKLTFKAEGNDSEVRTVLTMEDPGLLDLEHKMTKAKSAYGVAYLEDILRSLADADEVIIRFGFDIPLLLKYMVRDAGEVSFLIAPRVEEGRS

B1: Thermococcus kodakarensis PCNA2 (TK0582) (natural protein)
chain: T1 sequence with A75R, E111F, A143R
B2: Thermococcales inhibitor of PCNA (TIP), encoded by TK0808 (natural protein, Thermococcus kodakarensis, UniProt Q5JH72 1-64, looked up)
chain: MDRKLDEFIGDATPKKVSKEKPVRRKKRLKPTSLDSFLPEEHINYFRDLRIGSKKIRNAKIEEL
B3: Methanothermobacter thermautotrophicus PCNA (mtPCNA) (natural protein, UniProt O27367 1-244, looked up)
chain: MFKAELNDPNILRTSFDAISSIVDEVQIQLSAEGLRLDALDRSHITYVHLELKAELFDEYVCDEPERINVDTEELMKVLKRAKANDRVILSTDEGNLIIQFEGEAVRTFKIRLIDIEYETPSPPEIEYENEFEVPFQLLKDSIADIDIFSDKITFRVDEDRFIASAEGEFGDAQIEYLHGERIDKPARSIYSLDKIKEMLKADKFSETAIINLGDDMPLKLTLKMASKEGELSFLLAPRIEAEE
B4: Thermococcus kodakarensis PCNA1 (TK0535) (natural protein, UniProt Q5JF32 1-249, looked up)
chain: MPFEVVFDGAKEFADLIATASNLIDEAAFKFTEEGISMRAMDPSRVVLIDLNLPESIFSKYEVEEPETIGINMDQFKKILKRGKAKDTLILRKGDENFLEITFEGTAKRTFRLPLIDVEELELELPELPFTAKVVLLGEVLKEGIKDASLVSDAIKFIAKENEFTMKAEGETNEVEIRLTLEDEGLLDLEVEEETKSAYGIRYLSDMVKGIGKADEVILRFGNEMPLQMEYMIRDEGRLTFLLAPRVEE

Data set [1] concerns the molecule itself. The data set can be described thus: SEC; Superdex-200 (HR10/30); 100 ug of each protein in 200 ul of 25 mM Tris-HCl pH 8.0, 200 mM NaCl, 0.5 mM EDTA, 10% glycerol; fractions on SDS-PAGE, Coomassie.
For data set [2], the target named is B4. The data set can be described thus: crystal structure; low resolution X-ray structure of the complex, unpublished observation. The conditions noted are these: both partners purified.
The target of data set [3] is T1, monomeric form of PCNA2 (PCNA2m, …). The data set can be described thus: SEC; Superdex-200 (HR10/30); 100 ug of each protein in 200 ul of 25 mM Tris-HCl pH 8.0, 200 mM NaCl, 0.5 mM EDTA, 10% glycerol; fractions on SDS-PAGE, Coomassie. Particulars: both partners purified. A general note: In gel filtration, larger molecules generally elute earlier.
The target of data set [4] is B1. The data set can be described thus: HDX-MS; 15 uM protein; PCNA monomer:TIP monomer 1:1, equilibrated at 4 C for 16 h; 20 mM sodium phosphate, 500 mM NaCl, pH 7.6; exchange at 3 C, 30 s to 60 min; pepsin digestion. Particulars: both partners purified.

Substitutions are numbered along the chain they refer to.

With B1, in data set [1], the stoichiometry N (commonly a count of units in the complex or per binding partner) came to 3.

Consider B2, for which the “stoichiometry N” value in data set [2] is 1 TIP per PCNA monomer. Besides, the binding result in data set [3] and in data set [4] was “binds” in each case.

As for B3, the “stoichiometry N” value in data set [1] came out at 3. Still for that read-out and setting: with B4 the figure was 3.
